Patent US20050268353A1

How the values were obtained:
[1] = biological target: Midgut brush border membranes of Helicoverpa armigera larvae; assay: 125I-labelled HaSV particles (103,000 cpm) incubated 1 h with midgut brush border membranes, pelleted, washed three times, gamma counting
[2] = biological target: Midgut brush border membranes of Helicoverpa armigera larvae; assay: 125I-labelled HaSV particles with midgut brush border membranes preincubated 1 h with unlabelled HaSV (self-competition)
[3] = biological target: Midgut brush border membranes of Helicoverpa armigera larvae; assay: 125I-labelled HaSV particles with midgut brush border membranes boiled before the incubation (control)

Helicoverpa armigera stunt virus (HaSV) particles (from UniProt Q82462 1-647)
cpm remaining with the membranes after washing [1]: 8500 cpm | cpm remaining with the membranes after washing [2]: 2100 cpm | cpm remaining with the membranes after washing [3]: 1700 cpm
